Assay results reported in doi:10.1101/2022.08.08.502946 (bioRxiv, 2022).
Substitutions are numbered along the chain they refer to. Names may count otherwise. Each block holds one molecule with its values, some of them ahead of it.

How the values were obtained:
[1] = target: NaKΔ18 S-ELM (Bacillus cereus) (UniProt Q81HW2); experiment: crystal structure
[2] = target: the molecule itself; experiment: crystal structure

stoichiometry N [1]: 4
Molecule: NaKΔ18 S-ELM (from UniProt Q81HW2 19-114) (domain or fragment)

B1: NaKΔ18 C-DI (domain or fragment, Bacillus cereus, UniProt Q81HW2 19-114, looked up)
chain: WKDKEFQVLFVLTILTLISGTIFYSTVEGLRPIDALYFSVVTLTTVGCDISPQTDFGKIFTILYIFIGIGLVFGFIHKLAVNVQLPSILSNRKKE
stoichiometry N [2]: 4

B2: NaKΔ18 S-DI (domain or fragment, Bacillus cereus, UniProt Q81HW2 19-114, looked up)
chain: B1 chain with C48S
stoichiometry N [2]: 4

B3: NaKΔ18 C-DI F92A (domain or fragment, Bacillus cereus, UniProt Q81HW2 19-114, looked up)
chain: B1 chain with F73A
stoichiometry N [2]: 4
